B1: SEQ ID NO: 25: Mycobacterium marinum carboxylate reductase (protein)
chain: MSPITREERLERRIQDLYANDPQFAAAKPATAITAAIERPGLPLPQIIETVMTGYADRPALAQRSVEFVTDAGTGHTTLRLLPHFETISYGELWDRISALADVLSTEQTVKPGDRVCLLGFNSVDYATIDMTLARLGAVAVPLQTSAAITQLQPIVAETQPTMIAASVDALADATELALSGQTATRVLVFDHHRQVDAHRAAVESARERLAGSAVVETLAEAIARGDVPRGASAGSAPGTDVSDDSLALLIYTSGSTGAPKGAMYPRRNVATFWRKRTWFEGGYEPSITLNFMPMSHVMGRQILYGTLCNGGTAYFVAKSDLSTLFEDLALVRPTELTFVPRVWDMVFDEFQSEVDRRLVDGADRVALEAQVKAEIRNDVLGGRYTSALTGSAPISDEMKAWVEELLDMHLVEGYGSTEAGMILIDGAIRRPAVLDYKLVDVPDLGYFLTDRPHPRGELLVKTDSLFPGYYQRAEVTADVFDADGFYRTGDIMAEVGPEQFVYLDRRNNVLKLSQGEFVTVSKLEAVFGDSPLVRQIYIYGNSARAYLLAVIVPTQEALDAVPVEELKARLGDSLQEVAKAAGLQSYEIPRDFIIETTPWTLENGLLTGIRKLARPQLKKHYGELLEQIYTDLAHGQADELRSLRQSGADAPVLVTVCRAAAALLGGSASDVQPDAHFTDLGGDSLSALSFTNLLHEIFDIEVPVGVIVSPANDLQALADYVEAARKPGSSRPTFASVHGASNGQVTEVHAGDLSLDKFIDAATLAEAPRLPAANTQVRTVLLTGATGFLGRYLALEWLERMDLVDGKLICLVRAKSDTEARARLDKTFDSGDPELLAHYRALAGDHLEVLAGDKGEADLGLDRQTWQRLADTVDLIVDPAALVNHVLPYSQLFGPNALGTAELLRLALTSKIKPYSYTSTIGVADQIPPSAFTEDADIRVISATRAVDDSYANGYSNSKWAGEVLLREAHDLCGLPVAVFRCDMILADTTWAGQLNVPDMFTRMILSLAATGIAPGSFYELAADGARQRAHYDGLPVEFIAEAISTLGAQSQDGFHTYHVMNPYDDGIGLDEFVDWLNESGCPIQRIADYGDWLQRFETALRALPDRQRHSSLLPLLHNYRQPERPVRGSIAPTDRFRAAVQEAKIGPDKDIPHVGAPIIVKYVSDLRLLGLL
modifications: Mycobacterium marinum (strain ATCC BAA-535 / M)
notes: Mycobacterium marinum carboxylate reductase
B2: SEQ ID NO: 27: Mycobacterium smegmatis fatty-acid-CoA ligase with carboxylate reductase activity (protein)
chain: MTIETREDRFNRRIDHLFETDPQFAAARPDEAISAAAADPELRLPAAVKQILAGYADRPALGKRAVEFVTDEEGRTTAKLLPRFDTITYRQLAGRIQAVTNAWHNHPVNAGDRVAILGFTSVDYTTIDIALLELGAVSVPLQTSAPVAQLQPIVAETEPKVIASSVDFLADAVALVESGPAPSRLVVFDYSHEVDDQREAFEAAKGKLAGTGVVVETITDALDRGRSLADAPLYVPDEADPLTLLIYTSGSTGTPKGAMYPESKTATMWQAGSKARWDETLGVMPSITLNFMPMSHVMGRGILCSTLASGGTAYFAARSDLSTFLEDLALVRPTQLNFVPRIWDMLFQEYQSRLDNRRAEGSEDRAEAAVLEEVRTQLLGGRFVSALTGSAPISAEMKSWVEDLLDMHLLEGYGSTEAGAVFIDGQIQRPPVIDYKLVDVPDLGYFATDRPYPRGELLVKSEQMFPGYYKRPEITAEMFDEDGYYRTGDIVAELGPDHLEYLDRRNNVLKLSQGEFVTVSKLEAVFGDSPLVRQIYVYGNSARSYLLAVVVPTEEALSRWDGDELKSRISDSLQDAARAAGLQSYEIPRDFLVETTPFTLENGLLTGIRKLARPKLKAHYGERLEQLYTDLAEGQANELRELRRNGADRPVVETVSRAAVALLGASVTDLRSDAHFTDLGGDSLSALSFSNLLHEIFDVDVPVGVIVSPATDLAGVAAYIEGELRGSKRPTYASVHGRDATEVRARDLALGKFIDAKTLSAAPGLPRSGTEIRTVLLTGATGFLGRYLALEWLERMDLVDGKVICLVRARSDDEARARLDATFDTGDATLLEHYRALAADHLEVIAGDKGEADLGLDHDTWQRLADTVDLIVDPAALVNHVLPYSQMFGPNALGTAELIRIALTTTIKPYVYVSTIGVGQGISPEAFVEDADIREISATRRVDDSYANGYGNSKWAGEVLLREAHDWCGLPVSVFRCDMILADTTYSGQLNLPDMFTRLMLSLVATGIAPGSFYELDADGNRQRAHYDGLPVEFIAEAISTIGSQVTDGFETFHVMNPYDDGIGLDEYVDWLIEAGYPVHRVDDYATWLSRFETALRALPERQRQASLLPLLHNYQQPSPPVCGAMAPTDRFRAAVQDAKIGPDKDIPHVTADVIVKYISNLQMLGLL
modifications: Mycobacterium smegmatis (strain ATCC 700084 / mc(2)155)
B3: SEQ ID NO: 88: Clostridium sulfidigenes thioesterase (protein)
chain: MELNYKEQFTIKFHEGDFMGNVKLFTIMDYVQQVSEGHSQILGVDFQSMMNKGLFWVVSRVEITMERYPKVGEDITVETCLGGREKVFMKRRFKIKDKDGQVIGRVLIYYLIVDIETRLPQKPSMCPVDININVGDVIDNKLNKIKMPGEAIETVNRKLYYNDIDINNHVNNAKYISFIEDFFSLDWHRVKKISYMQLNFIKEIKFDDSLIMNKFIEDKESNSFCINGISEISEQEFFQCRLKF
modifications: Clostridium sulfidigenes
notes: Clostridium sulfidigenes thioesterase
B4: SEQ ID NO: 91: Cryptobacterium curtum thioesterase (protein)
chain: MTISASLFLEKDYRLRTGDFDRYRRLHPTAVLDLFQDIGGLQAEMMGIGYDAMAAQDVFWAVVRTAYQVEHTPAEHEVVKVSTWPHSPSRYSFQRDYALRSTDGSLLVRGTSEWVLMDMNTRSLTSVLDYYHGSLDFIDERMFAKKLRKIRDFTEEGSGLSITPRYSDVDQNGHVNNARYASFVLDALDPSAAGSIASFQIDFRHEVIEGTPLVVFTQVEGKDIQAKGLDSNGEIKFACKITAQA
modifications: Cryptobacterium curtum (strain ATCC 700683 / DSM 15641 / 12-3)
notes: Cryptobacterium curtum thioesterase

How the values were obtained:
Assay type in all cases: biochemical
[1] = Carboxylate reductase activity, 7-hydroxyheptanoate to 7-hydroxyheptanal, NADPH consumption at 340 nm; conditions: enhanced by gene product of sfp, 20 min, against empty vector control, FIG. 44
Method: A sequence encoding a His-tag was added to the genes from Mycobacterium marinum, Mycobacterium smegmatis, Segniliparus rugosus, Mycobacterium smegmatis, Mycobacterium massiliense, and Segniliparus rotundus that encode the carboxylate reductases of SEQ ID NOs: 25 (GenBank Accession No. ACC40567.1), 27 (GenBank Accession No. ABK75684.1), 29 (GenBank Accession No. ABK71854.1), 31 (GenBank Accession No. EFV11917.1), 37 (GenBank Accession No. EIV11143.1), and 38 (GenBank Accession No. ADG98140.1) such that N-terminal HIS tagged carboxylate reductases could be produced. Each of the modified genes was cloned into a pET Duet expression vector alongside a sfp gene encoding a His-tagged phosphopantetheine transferase from Bacillus subtilis, both under control of the T7 promoter.
Each expression vector was transformed into a BL21[DE3] E. coli host and the resulting recombinant E. coli strains were cultivated at 37° C. in a 250 mL shake flask culture containing 50 mL LB media and antibiotic selection pressure, with shaking at 230 rpm. Each culture was induced overnight at 37° C. using an auto-induction media.
The pellet from each induced shake flask culture was harvested via centrifugation. Each pellet was resuspended and lysed via sonication. The cell debris was separated from the supernatant via centrifugation. The carboxylate reductases and phosphopantetheine transferase were purified from the supernatant using Ni-affinity chromatography, diluted 10-fold into 50 mM HEPES buffer (pH=7.5) and concentrated via ultrafiltration.
Enzyme activity (i.e., 7-hydroxyheptanoate to 7-hydroxyheptanal) assays were performed in triplicate in a buffer composed of a final concentration of 50 mM HEPES buffer (pH=7.5), 2 mM […], 10 mM MgCl2, 1 mM ATP, and 1 mM NADPH. Each enzyme activity assay reaction was initiated by adding purified carboxylate reductase and phosphopantetheine transferase or the empty vector control to the assay buffer containing the 7-hydroxyheptanoate and then incubated at room temperature for 20 min. The consumption of NADPH was monitored by absorbance at 340 nm.

heptanedioyl-ACP = experiment: Cell lysate in vitro thioesterase screen (DTNB, absorbance at 410 nm) on heptanedioyl-ACP; conditions: 0.33 mM acyl-ACP substrate, 30° C., 30 min
[2] = test system: heptanedioyl-ACP methyl ester; experiment: Cell lysate in vitro thioesterase screen (DTNB, absorbance at 410 nm) on heptanedioyl-ACP methyl ester; conditions: 0.33 mM acyl-ACP substrate, 30° C., 30 min

Molecule | acceptance of 7-hydroxyheptanoate as substrate, forming 7-hydroxyheptanal [1] | activity toward heptanedioyl-ACP (hydrolysis) (heptanedioyl-ACP) | activity toward heptanedioyl-ACP methyl ester (hydrolysis) [2]
B1 | accepted 7-hydroxyheptanoate as substrate |  | 
B2 | accepted 7-hydroxyheptanoate as substrate |  | 
B3 |  | notable for their activity toward heptanedioyl-ACP | notable for their activity toward heptanedioyl-ACP methyl ester
B4 |  | notable for their activity toward heptanedioyl-ACP | notable for their activity toward heptanedioyl-ACP methyl ester
